Results as given in doi:10.1101/2024.09.22.614354 (bioRxiv, 2024).

How the values were obtained:
Experiment in all cases: fluorescence polarisation
[1] = biological target: T1, Rb^P S474I (human, UniProt P06400 380-788, S474I)
T1 sequence: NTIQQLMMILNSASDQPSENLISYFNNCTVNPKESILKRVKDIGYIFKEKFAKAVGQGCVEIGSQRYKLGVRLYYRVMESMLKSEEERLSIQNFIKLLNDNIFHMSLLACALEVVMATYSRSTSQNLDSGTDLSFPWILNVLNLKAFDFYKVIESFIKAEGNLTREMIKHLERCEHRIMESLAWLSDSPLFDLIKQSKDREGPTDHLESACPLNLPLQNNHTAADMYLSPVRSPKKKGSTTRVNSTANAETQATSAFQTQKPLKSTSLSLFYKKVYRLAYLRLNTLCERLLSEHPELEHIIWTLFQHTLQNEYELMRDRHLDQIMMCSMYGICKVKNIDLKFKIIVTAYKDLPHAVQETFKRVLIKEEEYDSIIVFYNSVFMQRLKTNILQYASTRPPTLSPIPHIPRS

[2] = biological target: T2, Rb^P R656Q (human, UniProt P06400 380-788, R656Q)
T2 sequence: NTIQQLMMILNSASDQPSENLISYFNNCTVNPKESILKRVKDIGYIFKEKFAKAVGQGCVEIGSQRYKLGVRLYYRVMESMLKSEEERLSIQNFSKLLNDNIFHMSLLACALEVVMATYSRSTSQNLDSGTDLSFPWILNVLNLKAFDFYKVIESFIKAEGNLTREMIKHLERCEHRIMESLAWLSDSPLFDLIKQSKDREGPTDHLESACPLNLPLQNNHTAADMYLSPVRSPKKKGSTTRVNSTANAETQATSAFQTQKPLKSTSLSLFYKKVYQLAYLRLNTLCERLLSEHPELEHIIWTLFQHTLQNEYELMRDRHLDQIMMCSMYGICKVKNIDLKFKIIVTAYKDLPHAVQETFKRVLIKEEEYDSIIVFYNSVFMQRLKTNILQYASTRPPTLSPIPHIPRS

[3] = biological target: T3, Rb^P K530I (human, UniProt P06400 380-788, K530I)
T3 sequence: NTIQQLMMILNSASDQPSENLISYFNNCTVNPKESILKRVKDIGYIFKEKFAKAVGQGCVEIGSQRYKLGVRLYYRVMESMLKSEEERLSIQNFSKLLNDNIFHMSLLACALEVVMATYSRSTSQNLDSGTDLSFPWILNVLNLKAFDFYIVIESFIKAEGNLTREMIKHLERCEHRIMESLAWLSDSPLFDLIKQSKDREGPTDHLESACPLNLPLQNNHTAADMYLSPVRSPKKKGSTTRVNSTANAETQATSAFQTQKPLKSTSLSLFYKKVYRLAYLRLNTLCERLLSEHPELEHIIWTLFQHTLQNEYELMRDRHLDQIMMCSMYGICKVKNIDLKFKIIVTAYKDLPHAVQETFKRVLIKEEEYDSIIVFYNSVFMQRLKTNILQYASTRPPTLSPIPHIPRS

[4] = biological target: T4, Rb^P S534R (human, UniProt P06400 380-788, S534R)
T4 sequence: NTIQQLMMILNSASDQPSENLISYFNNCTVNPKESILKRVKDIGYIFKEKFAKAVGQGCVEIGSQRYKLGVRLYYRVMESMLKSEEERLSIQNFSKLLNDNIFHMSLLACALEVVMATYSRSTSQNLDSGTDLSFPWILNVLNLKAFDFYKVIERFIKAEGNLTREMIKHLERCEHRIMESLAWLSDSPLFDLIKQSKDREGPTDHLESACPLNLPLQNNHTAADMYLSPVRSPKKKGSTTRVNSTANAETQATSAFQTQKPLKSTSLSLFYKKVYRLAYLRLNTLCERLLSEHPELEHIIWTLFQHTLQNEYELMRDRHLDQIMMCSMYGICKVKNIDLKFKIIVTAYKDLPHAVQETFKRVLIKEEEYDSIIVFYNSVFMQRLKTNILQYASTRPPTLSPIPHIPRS

[5] = biological target: T5, Rb^P R741C (human, UniProt P06400 380-788, R741C)
T5 sequence: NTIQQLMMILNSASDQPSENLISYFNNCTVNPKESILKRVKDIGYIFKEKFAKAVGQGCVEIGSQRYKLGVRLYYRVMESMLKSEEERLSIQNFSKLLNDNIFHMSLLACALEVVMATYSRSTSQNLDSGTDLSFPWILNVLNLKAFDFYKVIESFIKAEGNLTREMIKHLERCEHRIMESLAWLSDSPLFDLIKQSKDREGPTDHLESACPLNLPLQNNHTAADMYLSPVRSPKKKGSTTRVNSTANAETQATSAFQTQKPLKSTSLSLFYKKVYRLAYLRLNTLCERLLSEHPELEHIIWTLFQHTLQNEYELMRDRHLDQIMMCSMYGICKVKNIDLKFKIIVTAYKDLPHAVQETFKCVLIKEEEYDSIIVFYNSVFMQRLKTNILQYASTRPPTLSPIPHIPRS

Measured: binding result

DLYCYEQLN (not fully specified; TMR fluorescent label (TMR-E7^LxCxE)) [TMR-E7^LxCxE (LxCxE peptide of the E7 oncoprotein from HPV, TMR-labeled)]
binds: all assays above
